Data on 3 molecules can be found in patent publication US20090130105A1 (Biogen, published 2009).

Test [1] deals with T1, human IGF-1R(1-903)-Fc (human, UniProt P08069 31-933).
T1 construct: also called hIGF-1R-Fc; SDWT; not shown: human IgG1 Fc, C-terminal tag
In words: IGF-1 blocking ELISA at 20 nM IGF-1 His on biotinylated hIGF-1R-Fc. How it is done:
(§1) The dilutions were added to the plates in duplicate at 100 μL/well and the plates were incubated at RT for 1 hour. The plates were then washed four times with 200 μL/well PBST. An HRP-conjugated anti-Histag antibody (Penta-His HRP Conjugate, QIAGEN, Cat. No. 1014992) was diluted 1:1000 in PBST and added to plates at 100 μL/well, and the plates were incubated at RT for one hour. The plates were then washed four times with 200 μL/well PBST. SureBlue Reserve TMB Microwell Peroxidase Substrate (KPL, Cat. No. 53-00-01) was added to plates at 100 μL/well followed by 1% phosphoric acid at 100 μL/well once the desired reaction was observed. The absorbance of each well was determined at 450 nm, and the results were normalized and plotted against the log of antibody concentration.
(§2) Ligand Blocking Properties.

The target in test [2] is T2, sIGF-1R(1-903) (human, UniProt P08069 31-933).
T2 construct: also called soluble IGF-1R ectodomain
In words: ITC series titration, G11 MAb into sIGF-1R(1-903) holding excess C06 MAb. How it is done:
(§3) The protein solutions were prepared as described above for the MAb binding experiments. All ITC experiments were performed on an ITC₂₀₀ microcalorimeter (MicroCal, LLC) at 25° C. […] IGF-1R bispecific antibodies. A four minute equilibration period was used between all injections with an initial delay of 60 seconds. Numerical integration of the data was performed using the ITC data analysis software supplied by MicroCal (Origin). ΔHA° (T) values were calculated based on the difference between the average heat liberated/absorbed during the binding phase of the injections and the average heat of dilution found once the receptor, IGF-1R, was saturated with MAb or BsAb.
Both the dimeric receptor and the bivalent MAbs contain two potential binding sites.

The target in test [3] is T3, human IGF-1R(1-902)-His10 (human, UniProt P08069 31-932).
T3 construct: Bought from R&D Systems (305-GR-050); also called hIGF-1R-His10; hIGF-1R-His
In words: SPR competition (Biacore 3000): soluble antibody titrated into 40 nM hIGF-1R-His, mixture injected over immobilized M14-G11. How it is done:
Regeneration was achieved by three 10 μL injections of 0.1 M glycine, pH 2.0. 100% hIGF-1R-His binding to each antibody was determined by the signal above the baseline under mass transport-limiting conditions 60 seconds into the injection.

The target in test [4] is T2, sIGF-1R(1-903). In words: ITC, 25 °C, antibody into sIGF-1R(1-903). The method, then:
as §3, with “Isothermal Titration Calorimetry (ITC). […] The reagents were co-dialyzed against PBS, pH 7.2. The protein solutions were adjusted to the concentrations listed above by dilution using PBS dialysate. […] The” for “The”

For test [5], the target named is T1, human IGF-1R(1-903)-Fc. Nature of the test: ELISA, blocking of 320 nM IGF-1 His on biotinylated hIGF-1R-Fc. The method, then:
as §1, with “hIGF-1R-Fc was biotinylated using EZ-Link Sulfo-NHS-LC-Biotin according to the protocol provided by the manufacturer (Pierce Cat. No. 21335). Biotinylated human IGF-1R Fc (NB12453-9) at 5 μg/ml was added to the wells of SigmaScreen streptavidin-coated 96-well plates (Sigma, Cat. No. M5432-5EA) at 100 μL/well and incubated overnight at 2-8° C. The plates were then washed four times with 200 μL/well PBST. […] The dilutions” for “The dilutions”

The target in test [6] is T2, sIGF-1R(1-903). In words: ITC, 25 °C; footnote a: affinity too high for accurate measurement. How it is done: as §3, with “Isothermal Titration Calorimetry (ITC). […] The reagents were co-dialyzed against PBS, pH 7.2. The protein solutions were adjusted to the concentrations listed above by dilution using PBS dialysate. […] The” for “The”
Test [7] addresses T4, human IGF-1R on H322M non-small cell lung cancer cells (human, UniProt P08069 31-1367). Nature of the test: cell-based or functional assay.
For test [8], the target named is T2, sIGF-1R(1-903). In words: equilibrium solution-phase SPR, free sIGF-1R(1-903) read on G11 surface.
The target in test [9] is T4, human IGF-1R on H322M non-small cell …. In words: flow cytometry on H322M cells. How it is done: (§4) Cell lines were routinely cultured no greater than 20 passages. Flow cyotometric analysis of antibody binding to human cancer cells. Cells were lifted with cell dissociation buffer (Gibco catalog #13151-014), counted, washed and adjusted to 5×10⁶ cells/ml. Cells (2.5×10⁵; 50 uL) were added to each well of a 96-well round bottom plate (Costar #3799). Purified antibodies were tested at a starting concentration of 300 nM with serial half-log dilutions in FACS buffer. FACS buffer used throughout the assay was PBS (without Ca++/Mg++) containing 5% FBS. Samples were incubated on ice for 30 minutes, washed 3× with 200 uL FACS buffer and centrifuged at 1200 rpm for 3 minutes at 4° C. C2B8 (rituximab, IgG1) was used as a negative control. […] Samples were incubated for an additional 30 minutes on ice, shielded from light. Cells were washed as described above and resuspended in 100 μl FACS buffer containing propidium iodide (PI) for dead cell exclusion (BD Pharmingen, catalog# 51-66211E or 556463; use at 1:500 final in FACS buffer). Samples were run in triplicate using the FACSArray flow cytometer (Becton Dickinson) with 5000 live events collected per sample. Data analysis was performed using the GraphPad Prism version 5.0 software (GraphPad Software Inc., 11452 El Camino Real #215, San Diego, Calif. 92130). Results. […]

Test [10] concerns the target T1, human IGF-1R(1-903)-Fc. Nature of the test: ELISA, blocking of IGF-2 His (640 nM by the table head) on biotinylated hIGF-1R-Fc.
Test [11] deals with T4, human IGF-1R on H322M non-small cell …. In words: flow cytometry on H322M cells, anti-human Fc PE secondary (FIG. 55B). How it is done: as §4
The target is the same in test [12]. Nature of the test: flow cytometry on H322M cells, anti-human Fab PE secondary (FIG. 55A). How it is done: as §4
Test [13] has as its target T1, human IGF-1R(1-903)-Fc. Nature of the test: IGF-2 blocking ELISA: antibody titrated in 640 nM IGF-2 His on biotinylated hIGF-1R-Fc on streptavidin plates, bound ligand detected with anti-His-HRP.
Test [14] has as its target T5, hIGF-1R-Fc mutant SD012 (E303G) (human, UniProt P08069 31-933).
T5 construct: not shown: human IgG1 Fc, C-terminal tag
Nature of the test: SPR, Fab over captured mutant hIGF-1R-Fc. The method, then: (§5) Surface plasmon resonance (SPR) experiments were performed on a Biacore 3000 instrument set to 25° C. […] The antibody sensorchip surfaces were prepared by injecting each antibody (diluted 100 μg/mL in 10 mM Acetate, pH 4.0) over EDC/NHS-activated sensorchip surfaces according to the standard protocol of the manufacturer. […] Both hIGF-1R-Fc and mIGF-1R-Fc proteins oligomerize due to the incorporation of two separate homodimeric regions (IGF-1R and IgG1-Fc). […] After, completion of the receptor-Fc loading step, flow rates were elevated to 5 μl/min. […] Dissociation was measured for 7 minutes after the antibody injections were complete. Finally, the flow rate was elevated to 30 μL/min and the chip surfaces were regenerated by 2×10 μL injections of 0.1 M glycine, pH 2.

The target in test [15] is T6, hIGF-1R-Fc mutant SD008 (S257F) (human, UniProt P08069 31-933).
T6 construct: not shown: human IgG1 Fc, C-terminal tag
Nature of the test: SPR, Fab over captured mutant hIGF-1R-Fc. How it is done:
as §5

Test [16] deals with T1, human IGF-1R(1-903)-Fc. Nature of the test: IGF-1 blocking ELISA: antibody titrated in 320 nM IGF-1 His on biotinylated hIGF-1R-Fc on streptavidin plates, bound ligand detected with anti-His-HRP. How it is done:
as §1, §2

In test [17] the target is T7, hIGF-1R-Fc mutant SD202 (D250S) (human, UniProt P08069 31-933).
T7 construct: not shown: human IgG1 Fc, C-terminal tag
In words: SPR, Fab over captured mutant. How it is done: as §5

Test [18] has as its target T8, hIGF-1R-Fc mutant SD201 (D248A) (human, UniProt P08069 31-933).
T8 construct: not shown: human IgG1 Fc, C-terminal tag
In words: SPR, Fab over captured mutant. The method, then: as §5

The target of test [19] is T9, hIGF-1R-Fc mutant SD207 (G265Y) (human, UniProt P08069 31-933).
T9 construct: not shown: human IgG1 Fc, C-terminal tag
Nature of the test: SPR, antibody over captured mutant. How it is done: as §5

The target of test [20] is T10, hIGF-1R-Fc mutant SD203 (N254A) (human, UniProt P08069 31-933).
T10 construct: not shown: human IgG1 Fc, C-terminal tag
Nature of the test: SPR, antibody over captured mutant. How it is done: as §5

Some results are limits rather than exact numbers.

T4 sequence (P08069 31-1367, stated change not applied): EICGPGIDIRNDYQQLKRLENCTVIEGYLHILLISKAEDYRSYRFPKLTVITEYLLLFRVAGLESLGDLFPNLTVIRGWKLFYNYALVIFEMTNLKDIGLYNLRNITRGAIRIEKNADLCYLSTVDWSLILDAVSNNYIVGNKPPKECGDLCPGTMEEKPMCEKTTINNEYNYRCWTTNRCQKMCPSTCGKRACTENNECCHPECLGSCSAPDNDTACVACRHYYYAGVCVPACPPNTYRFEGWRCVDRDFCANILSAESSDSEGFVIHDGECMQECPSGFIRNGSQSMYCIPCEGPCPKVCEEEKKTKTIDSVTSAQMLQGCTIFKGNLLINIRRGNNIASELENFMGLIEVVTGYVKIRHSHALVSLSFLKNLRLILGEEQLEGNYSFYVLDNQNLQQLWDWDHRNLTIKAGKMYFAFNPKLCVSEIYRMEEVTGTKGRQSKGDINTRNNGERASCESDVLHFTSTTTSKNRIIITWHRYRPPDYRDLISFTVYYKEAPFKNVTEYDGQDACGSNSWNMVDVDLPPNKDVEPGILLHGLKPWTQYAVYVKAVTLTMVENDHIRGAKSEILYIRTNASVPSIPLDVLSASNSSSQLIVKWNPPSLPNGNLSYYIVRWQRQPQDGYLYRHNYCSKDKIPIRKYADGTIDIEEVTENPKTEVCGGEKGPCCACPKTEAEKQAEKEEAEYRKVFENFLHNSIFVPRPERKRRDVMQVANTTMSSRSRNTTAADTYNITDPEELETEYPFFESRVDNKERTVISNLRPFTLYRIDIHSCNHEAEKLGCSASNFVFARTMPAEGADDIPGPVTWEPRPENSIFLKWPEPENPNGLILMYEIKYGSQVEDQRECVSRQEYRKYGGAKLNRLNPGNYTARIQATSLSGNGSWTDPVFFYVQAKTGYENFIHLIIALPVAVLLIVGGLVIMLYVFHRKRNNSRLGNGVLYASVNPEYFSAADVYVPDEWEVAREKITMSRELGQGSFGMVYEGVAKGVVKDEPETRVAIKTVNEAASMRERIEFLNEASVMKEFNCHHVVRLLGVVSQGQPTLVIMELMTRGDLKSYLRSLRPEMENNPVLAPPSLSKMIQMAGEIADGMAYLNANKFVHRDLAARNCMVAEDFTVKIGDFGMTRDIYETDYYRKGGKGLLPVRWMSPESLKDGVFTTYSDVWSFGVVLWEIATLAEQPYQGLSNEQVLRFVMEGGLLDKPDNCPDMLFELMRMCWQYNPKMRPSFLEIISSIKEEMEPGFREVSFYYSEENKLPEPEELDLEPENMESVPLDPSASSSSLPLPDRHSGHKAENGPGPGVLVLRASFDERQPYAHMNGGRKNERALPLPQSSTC
T1 sequence (P08069 31-933): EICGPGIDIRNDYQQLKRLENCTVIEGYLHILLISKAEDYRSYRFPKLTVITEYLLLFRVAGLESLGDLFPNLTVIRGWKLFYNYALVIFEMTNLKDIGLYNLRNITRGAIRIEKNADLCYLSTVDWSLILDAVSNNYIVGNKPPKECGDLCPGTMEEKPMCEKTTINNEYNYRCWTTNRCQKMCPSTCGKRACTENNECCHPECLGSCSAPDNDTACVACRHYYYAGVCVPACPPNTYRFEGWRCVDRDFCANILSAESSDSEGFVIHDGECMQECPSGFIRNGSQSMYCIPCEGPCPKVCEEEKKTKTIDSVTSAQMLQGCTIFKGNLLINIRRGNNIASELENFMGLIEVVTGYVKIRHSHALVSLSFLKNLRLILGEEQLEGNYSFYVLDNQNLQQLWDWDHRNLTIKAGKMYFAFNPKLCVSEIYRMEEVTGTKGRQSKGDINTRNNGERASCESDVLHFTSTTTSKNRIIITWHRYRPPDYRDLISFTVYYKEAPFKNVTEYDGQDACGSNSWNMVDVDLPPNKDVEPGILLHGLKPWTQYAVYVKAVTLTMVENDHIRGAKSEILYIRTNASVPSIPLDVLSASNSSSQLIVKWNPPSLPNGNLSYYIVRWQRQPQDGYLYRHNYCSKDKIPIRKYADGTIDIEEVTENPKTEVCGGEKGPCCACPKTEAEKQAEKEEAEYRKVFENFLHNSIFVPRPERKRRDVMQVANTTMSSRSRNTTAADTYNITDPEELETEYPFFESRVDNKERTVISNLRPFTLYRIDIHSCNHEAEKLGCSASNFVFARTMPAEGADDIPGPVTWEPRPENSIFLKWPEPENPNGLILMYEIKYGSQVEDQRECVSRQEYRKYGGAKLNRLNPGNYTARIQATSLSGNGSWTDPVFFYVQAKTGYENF
T2 sequence (P08069 31-933): as above
T10 sequence (P08069 31-933 N284A): as the sequence (P08069 31-933) above, with N254A counted along it
T9 sequence (P08069 31-933 G295Y): as the sequence (P08069 31-933) above, with G265Y counted along it
T7 sequence (P08069 31-933 D280S): as the sequence (P08069 31-933) above, with D250S counted along it
T5 sequence (P08069 31-933 E333G): as the sequence (P08069 31-933) above, with E303G counted along it
T8 sequence (P08069 31-933 D278A): as the sequence (P08069 31-933) above, with D248A counted along it
T3 sequence (P08069 other isoform, or with tags, fused parts or gaps): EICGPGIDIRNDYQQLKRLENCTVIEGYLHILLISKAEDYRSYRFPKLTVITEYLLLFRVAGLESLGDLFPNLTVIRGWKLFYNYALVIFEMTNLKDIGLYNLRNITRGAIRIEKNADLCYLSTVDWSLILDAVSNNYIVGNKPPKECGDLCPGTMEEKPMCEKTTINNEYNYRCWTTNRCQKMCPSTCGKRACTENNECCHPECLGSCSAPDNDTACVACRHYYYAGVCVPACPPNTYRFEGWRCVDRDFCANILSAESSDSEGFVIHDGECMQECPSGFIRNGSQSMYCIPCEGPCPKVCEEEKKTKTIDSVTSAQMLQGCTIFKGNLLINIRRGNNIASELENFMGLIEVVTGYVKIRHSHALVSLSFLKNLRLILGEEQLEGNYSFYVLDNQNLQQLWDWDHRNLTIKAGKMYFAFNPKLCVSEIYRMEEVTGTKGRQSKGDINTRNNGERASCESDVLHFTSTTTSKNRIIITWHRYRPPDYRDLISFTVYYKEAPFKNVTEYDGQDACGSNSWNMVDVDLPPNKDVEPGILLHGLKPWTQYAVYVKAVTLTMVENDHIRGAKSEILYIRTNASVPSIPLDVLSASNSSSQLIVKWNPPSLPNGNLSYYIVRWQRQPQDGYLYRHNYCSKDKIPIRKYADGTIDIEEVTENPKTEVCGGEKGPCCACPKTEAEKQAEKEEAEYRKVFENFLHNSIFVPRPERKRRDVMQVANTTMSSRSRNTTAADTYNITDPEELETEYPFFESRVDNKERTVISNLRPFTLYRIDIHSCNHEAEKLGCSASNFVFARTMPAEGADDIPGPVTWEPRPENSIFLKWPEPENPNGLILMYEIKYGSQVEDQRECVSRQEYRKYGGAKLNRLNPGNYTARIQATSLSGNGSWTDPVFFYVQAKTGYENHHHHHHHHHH
T6 sequence (P08069 31-933 S287F): as the sequence (P08069 31-933) above, with S257F counted along it

B1: M14-G11 antibody (antibody, V domains shown)
VH: EVQLLESGGGLVQPGGSLRLSCAASGFTFSNYPMYWVRQAPGKGLEWVSRISSSGGRTVYADSVKGRFTISRDNSKNTLYLQMNSLRAEDTAVYYCARDRWSRSAAEYGLGGYWGQGTLVTVSS
VL: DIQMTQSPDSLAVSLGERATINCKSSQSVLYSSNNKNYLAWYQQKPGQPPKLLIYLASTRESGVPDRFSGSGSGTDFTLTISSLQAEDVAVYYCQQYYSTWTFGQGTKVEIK
notes: Fully human full-length antibody; also called M14.G11.G4.P.agly; G11.G4P.agly
In the case of B1, the “IC50 (read off the curve)” value in the test with human IGF-1R(1-903)-Fc [1] was about 2 nM; in [3], about 20 nM; in the test with human IGF-1R(1-903)-Fc [13] it was about 2 nM. Further, the “ΔH°” value with sIGF-1R(1-903) [2] is -67.8 kJ/mol; in the test with sIGF-1R(1-903) [4] it was -111 kJ/mol. Moreover, the IC50 with human IGF-1R(1-903)-Fc [5] stood at 13 nM; in the test with human IGF-1R(1-903)-Fc [10], 7.9 nM. The “-TΔS” value with sIGF-1R(1-903) [6] was determined as 61.9 kJ/mol. Also, the Kd with sIGF-1R(1-903) [6] was found to be 6 nM; with sIGF-1R(1-903) [8], 0.1 nM. This molecule yielded a ΔG with sIGF-1R(1-903) [6] of -46.9 kJ/mol. Moreover, the “reduction of surface IGF-1R after 24 hours (FACS, H322M cells)” value in [7] was over 70%. Further, the “n (#G11 specific binding sites)” value with sIGF-1R(1-903) [8] came out at 1.1. Further, the EC50 in test [9] is under 1 nM; in test [11], 0.72 nM; in test [12] it was 0.44 nM.

B2: M14-G11 Fab (Fab, V domains shown)
VH: EVQLLESGGGLVQPGGSLRLSCAASGFTFSNYPMYWVRQAPGKGLEWVSRISSSGGRTVYADSVKGRFTISRDNSKNTLYLQMNSLRAEDTAVYYCARDRWSRSAAEYGLGGYWGQGTLVTVSS
VL: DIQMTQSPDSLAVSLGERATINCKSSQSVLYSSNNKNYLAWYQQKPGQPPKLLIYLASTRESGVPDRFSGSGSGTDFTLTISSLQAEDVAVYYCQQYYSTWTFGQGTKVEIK
notes: Enzymatically derived Fab
With B2, the “fold loss in affinity (KD) against wild type” value in [14] and in test [15] was about 3 fold in each case. In addition, in the test with sIGF-1R(1-903) [8], the Kd was found to be 4 nM. Moreover, in the test with sIGF-1R(1-903) [8], the “n (#G11 specific binding sites)” value amounted to 1.7. The “IC50 (read off the curve)” value with human IGF-1R(1-903)-Fc [16] was about 6 nM. Also, the binding result in test [17] and in test [18] was “no binding (tested: up to 30 nM Fab)” each time.

B3: P1E2 chimeric antibody (antibody, V domains shown)
VH: QVQLQQPGAELVKPGASVKLSCKASGYTFTSYWMHWVKQRPGQGLEWIGEINPTYGRSNYNEKFKSKATLTVDKSSSTAYMQLSSLTSEDSAVYYCARLVRLRYFDVWGAGTTVTVSS
VL: DIVMTQAAFSNPVTLGTSASISCRSSKSLLHSNGITYLYWYLQKPGQSPQLLIYQMSNLASGVPDRFSSSGSGTDFTLRISRVEAEDVGVYYCAQNLELPYTFGGGTKLEIK
notes: also called DE12 Chimera; P1E2.3B12 variable domains
B3: the binding result in test [19] and in test [20] was “no binding (tested: up to 30 nM antibody)” throughout.
